In PMC2063547 (The Journal of Cell Biology, 2006):

T1: calcium and integrin binding protein 1 (CIB1), recombinant (human, UniProt Q99828 1-191)
T1 sequence (looked up): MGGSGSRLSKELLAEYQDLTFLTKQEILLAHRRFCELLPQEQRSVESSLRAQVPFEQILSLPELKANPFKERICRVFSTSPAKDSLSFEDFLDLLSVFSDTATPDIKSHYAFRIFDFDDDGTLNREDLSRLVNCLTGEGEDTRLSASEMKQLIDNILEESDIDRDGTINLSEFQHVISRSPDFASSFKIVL


Assays:
[1] = molecular target: full-length human αIIb cytoplasmic tail peptide (human); experiment: ELISA
[2] = molecular target: T1, calcium and integrin binding protein 1 …; experiment: ELISA

Row | Molecule | IC50 [1] | binding result [2]
1 | talin head domain (THD), recombinant (domain or fragment) | 25 nM | 
2 | LVLAMWKVGFFKRNRPPLEEDDEEGQ [full-length human αIIb cytoplasmic tail peptide] |  | binds
